Source: the supplement of paper PMC10126150
± gives the standard deviation of the averaged measurements.

Test system: ATP
Test: switch fluorescence ratio, 500 uM ATP over buffer (Cy3 cluster intensity, sum of 5 cycles each) (fold (ratio)); higher = stronger signal-on switching upon ATP binding; sequences stand for … in TCGTCGGCAGCGTCAGATGTGTATAAGAGACAGTTTTTTTTTTTTTTTTTTTTTTTTT…TC
Conditions: aptamer strand: ATP DNA aptamer (quencher-CACCTGGGGGAGTATTGCGGAGGAAGG + anchor), 100 nM annealed; ATP concentration: 500 uM
Summary of the method: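 Between each of five buffer/ATP cycles, the flow-cell was stripped with NaOH and re-annealed. Each cycle imaged Cy3-labelled switching-strand clusters, annealed to 100 nM quencher-labelled ATP aptamer on a modified Illumina MiSeq flow-cell, first in selection buffer and then after 15 min with 500 uM ATP at 22 °C. The fluorescence ratio is summed target-cycle over summed buffer-cycle Cy3 intensity per cluster, averaged per switch-domain sequence, with clusters outside 100-1000 RFU excluded.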
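Further: ATP exposure 15 min at 22 °C before imaging.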

| Sequence | switch fluorescence ratio |
| --- | --- |
| GTTGGAGCAT | 1.086 ± 0.0023 |
| TTTTAGTGGG | 1.01 ± 0.039 |
| ACGAACTTGA | 1.19 ± 0.055 |
| AGTACTTGCC | 1.03 ± 0.016 |
| TGAGGGGATT | 1 ± 0.022 |
| TATGGCGGGG | 1.02 ± 0.03 |
| GGGATTAGCG | 0.957 ± 0.037 |
| TTTTTCGAAG | 0.9894 ± 0.0098 |
| ATTATAGCGG | 0.9984 ± 0.0073 |
| TGGGGGACTA | 0.967 ± 0.033 |
| AAAGAAACGG | 1.1 ± 0.035 |
| TGACCGAATT | 1.03 ± 0.054 |
| AGTATTCAAA | 1 ± 0.018 |
| AAATCGCATG | 1.03 ± 0.019 |
| TTATTGCAGC | 1.07 ± 0.063 |
| CTCGGATAAG | 0.9922 ± 0.007 |
| CTCTAGGGGG | 1.05 ± 0.028 |
| ACTGTGCGCC | 1.01 ± 0.029 |
| ACATGTGACG | 0.98236 ± 0.00039 |
| AATGAACGGG | 0.981 ± 0.0089 |
| CAGAGTATCG | 1 ± 0.021 |
| AAAATGGGGA | 1.02 ± 0.033 |
| TATGATATGC | 1.032 ± 0.0011 |
| ATGTGGGGTG | 1.06 ± 0.053 |
| CAGGGGCGGC | 0.923 ± 0.064 |

| Sequence | switch fluorescence ratio |
| --- | --- |
| GTGTTGAACG | 1.04 ± 0.071 |
| GTCAGGGGTG | 1.04 ± 0.052 |
| CAGTGACGGT | 1.03 ± 0.021 |
| AGTCGGGGTT | 0.979 ± 0.01 |
| AGGTAAATTC | 2.33 ± 0.63 |
| GCAGCAGGGG | 1.84 ± 0.23 |
| TTATATACCA | 1.03 ± 0.079 |
| AGAGGATGGG | 1 ± 0.034 |
| GTCTGATTTA | 1.01 ± 0.011 |
| GCGCGGGGGT | 1.08 ± 0.032 |
| TCTTATAGGG | 1 ± 0.042 |
| GGGATGAGGG | 0.97 ± 0.037 |
| ACGCGAGTAT | 1.05 ± 0.019 |
| GGTTTCAGTG | 1.01 ± 0.025 |
| GGCAGGGGGC | 1.02 ± 0.031 |
| TGGGATTGAA | 0.9806 ± 0.0079 |
| AGGCGCGTGG | 1.03 ± 0.013 |
| GGGAATGCGG | 0.99 ± 0.03 |
| GTGGCGGGAG | 0.997 ± 0.017 |
| GTTCGGCGAT | 1.03 ± 0.013 |
| TGTTTGCTGT | 1.03 ± 0.074 |
| TATTGGGCTA | 0.993 ± 0.044 |
| ACTCGGGTGG | 1.019 ± 0.0096 |
| TCTGTGAGGT | 1.034 ± 0.0072 |
| TTTTGTACAT | 0.99 ± 0.039 |

| Sequence | switch fluorescence ratio |
| --- | --- |
| AGTTGGTCGG | 0.975 ± 0.031 |
| GTCTCTTAGG | 1.01 ± 0.014 |
| GCGAATATGC | 1.1 ± 0.038 |
| CGCCTCGTAA | 1.191 ± 0.01 |
| TCGAGTCTTT | 0.998 ± 0.015 |
| GATCTTTCGT | 1.01 ± 0.031 |
| CTATGTCGGT | 0.974 ± 0.015 |
| TGGGCTGCGG | 0.974 ± 0.04 |
| GGCATCGCGA | 1.1 ± 0.064 |
| AATATTTTGA | 1.02 ± 0.016 |
| CGACGGTTGG | 0.967 ± 0.013 |
| TTCTCGTCAA | 5.06 ± 0.96 |
| GTGTTAGAAG | 0.9749 ± 0.0015 |
| GATTATAAGT | 0.99 ± 0.017 |
| TTAGGTAACT | 1.01 ± 0.019 |
| CGGGGGCGGC | 0.974 ± 0.014 |
| GAAGGTACGG | 1.04 ± 0.061 |
| TTCAATGTCA | 0.99 ± 0.043 |
| GTTTTAATTA | 1.01 ± 0.021 |
| TTTGCAAAGT | 1.005 ± 0.0069 |
| GGTGATGAGA | 0.991 ± 0.06 |
| GCCGGGGCGG | 1.006 ± 0.0041 |
| CGCTGATGCT | 1.0852 ± 0.00031 |
| GTCTAATCAT | 0.967 ± 0.019 |
| ACCGGGCGAG | 1 ± 0.042 |

| Sequence | switch fluorescence ratio |
| --- | --- |
| CCTGGGCCCA | 1.09 ± 0.15 |
| CCTGCTAAGT | 1 ± 0.058 |
| CGAAGACTGC | 1.19 ± 0.12 |
| CCATTCATAG | 0.973 ± 0.022 |
| TGGCATGTGT | 0.986 ± 0.033 |
| TTCATAGGCT | 1.03 ± 0.025 |
| CGGGTACCAG | 1.01 ± 0.043 |
| TGTTTTGTAT | 1.07 ± 0.052 |
| CAGAAGGGTG | 1.02 ± 0.011 |
| CACGTGGGAG | 1.04 ± 0.023 |
| TAATGGATCG | 1 ± 0.044 |
| CGGAAGGCCA | 0.9836 ± 0.0044 |
| GCTTTTGAAG | 0.993 ± 0.019 |
| CCGGTTAAAC | 1.64 ± 0.06 |
| CCGTTGGGCT | 1.01 ± 0.025 |
| TTTGAGCTAT | 1.1 ± 0.029 |
| TTTGGTTCGA | 0.977 ± 0.012 |
| TCTGGTGATA | 1.01 ± 0.017 |
| TTAGTTGTAG | 0.993 ± 0.026 |
| GGGTATGCCC | 0.9949 ± 0.0027 |
| ACCCAGGTA | 2.1 ± 0.29 |
| AAATAGGTTA | 1.02 ± 0.046 |
| TTGGATGGGG | 0.972 ± 0.017 |
| ATGATCGCGT | 1.01 ± 0.024 |
| AGCGGGGTTT | 0.987 ± 0.011 |
